Results reported in paper PMC5269673.

Tests used:
Gramicidin A [1] = experiment: single-channel recording in planar lipid bilayers; gA added to both compartments of a painted DPhPC bilayer; conductive channel = gA dimer; 10 mmol/L HEPES, 1 mol/L KCl, pH 7.4, 23 ± 2 °C, -100 mV; without and with AEA
Gramicidin A [2] = experiment: single-channel recording in planar lipid bilayers; gA added to both compartments of a painted DOPC bilayer; conductive channel = gA dimer; 10 mmol/L HEPES, 1 mol/L KCl, pH 7.4, 23 ± 2 °C, -100 mV; without and with AEA (up to 3 umol/L) or 3 umol/L 2-AG

fold increase of channel appearance frequency f (f/f control = k1/k1,control) with 3 umol/L AEA over no AEA (Gramicidin A [1]): 4 fold
fold increase of open channel lifetime tau (tau control/tau = k-1/k-1,control) with 3 umol/L AEA over no AEA (Gramicidin A [1]): 1.4 fold
fold increase of channel appearance frequency f (f/f control = k1/k1,control) with 3 umol/L AEA over no AEA (Gramicidin A [2]): 7.2 fold
fold increase of open channel lifetime tau (tau control/tau = k-1/k-1,control) with 3 umol/L AEA over no AEA (Gramicidin A [2]): 1.8 fold
Substance: Gramicidin A (peptide)
